According to PMC4408062:

Biological target: Recombinant human PCSK9 (proprotein convertase subtilisin/kexin type 9) (human) (UniProt Q8NBP7)
Chain of UniProt Q8NBP7 (Q8NBP7 31-692): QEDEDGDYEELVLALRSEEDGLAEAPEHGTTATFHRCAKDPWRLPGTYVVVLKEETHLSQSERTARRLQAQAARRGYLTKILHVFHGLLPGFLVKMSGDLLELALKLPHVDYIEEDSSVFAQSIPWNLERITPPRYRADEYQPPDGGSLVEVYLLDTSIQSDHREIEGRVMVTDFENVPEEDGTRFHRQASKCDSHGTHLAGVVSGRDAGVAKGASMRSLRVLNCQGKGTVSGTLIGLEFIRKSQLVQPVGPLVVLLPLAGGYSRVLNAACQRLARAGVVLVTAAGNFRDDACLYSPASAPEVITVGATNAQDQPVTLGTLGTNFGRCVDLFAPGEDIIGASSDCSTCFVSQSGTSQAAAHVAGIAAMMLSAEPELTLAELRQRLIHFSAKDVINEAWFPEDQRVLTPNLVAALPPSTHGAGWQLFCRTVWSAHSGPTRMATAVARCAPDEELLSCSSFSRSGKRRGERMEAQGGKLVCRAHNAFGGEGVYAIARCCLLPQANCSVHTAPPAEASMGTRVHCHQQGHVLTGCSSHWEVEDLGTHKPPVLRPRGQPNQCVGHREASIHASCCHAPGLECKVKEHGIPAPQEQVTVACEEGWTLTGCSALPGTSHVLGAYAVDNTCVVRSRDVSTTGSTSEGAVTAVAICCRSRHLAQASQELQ

Q: For LDL (low density lipoprotein particle), which internalisation of PCSK9-488/J16 complexes in APLP2 siRNA treated HepG2 cells with 2.5 μg/ml LDL is on record?
A: Its internalisation of PCSK9-488/J16 complexes in APLP2 siRNA treated HepG2 cells with 2.5 μg/ml LDL is 2.5 fold.
